This passage reports Kd, binding signal and binding signal (% of bound DNA released) results from PMC8210318.

In data set [1] the target is T1, RPA heterotrimer (UniProt P27694+P15927+P35244). Kind of data set: fluorescence anisotropy. Conditions: EMSA: 10 mM Tris pH 7.5, 50 ug/ml BSA, 5% glycerol, 25 mM DTT, 37 C 10 min, 25 nM DNA, 5% TBE gel, anisotropy: same buffer, 30 C.
Data set [2] deals with T1, RPA heterotrimer. The data set can be described thus: EMSA. To be noted: 25 nM DNA, EMSA: 10 mM Tris pH 7.5, 50 ug/ml BSA, 5% glycerol, 25 mM DTT, 37 C 10 min, 5% TBE gel. On the technique in general: In EMSA bound probe runs differently from free probe, usually more slowly.

T1 sequence (P27694 whole entry, chain 1 of 3): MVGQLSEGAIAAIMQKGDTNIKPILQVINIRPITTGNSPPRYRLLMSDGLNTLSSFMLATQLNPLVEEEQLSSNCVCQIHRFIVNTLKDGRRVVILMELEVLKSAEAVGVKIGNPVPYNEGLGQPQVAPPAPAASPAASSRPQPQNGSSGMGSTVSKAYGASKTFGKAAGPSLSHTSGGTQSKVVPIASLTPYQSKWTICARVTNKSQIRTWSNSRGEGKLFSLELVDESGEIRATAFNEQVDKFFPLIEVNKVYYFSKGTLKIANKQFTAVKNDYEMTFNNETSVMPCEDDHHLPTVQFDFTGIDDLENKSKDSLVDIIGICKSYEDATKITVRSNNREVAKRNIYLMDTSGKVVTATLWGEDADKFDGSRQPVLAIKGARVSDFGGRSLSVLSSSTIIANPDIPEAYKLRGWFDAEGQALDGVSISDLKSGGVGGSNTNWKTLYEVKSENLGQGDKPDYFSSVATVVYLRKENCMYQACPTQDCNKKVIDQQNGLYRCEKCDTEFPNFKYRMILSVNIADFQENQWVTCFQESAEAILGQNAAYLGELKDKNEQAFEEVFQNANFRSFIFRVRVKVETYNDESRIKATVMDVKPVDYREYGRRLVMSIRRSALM
T1 sequence (P15927 whole entry, chain 2 of 3): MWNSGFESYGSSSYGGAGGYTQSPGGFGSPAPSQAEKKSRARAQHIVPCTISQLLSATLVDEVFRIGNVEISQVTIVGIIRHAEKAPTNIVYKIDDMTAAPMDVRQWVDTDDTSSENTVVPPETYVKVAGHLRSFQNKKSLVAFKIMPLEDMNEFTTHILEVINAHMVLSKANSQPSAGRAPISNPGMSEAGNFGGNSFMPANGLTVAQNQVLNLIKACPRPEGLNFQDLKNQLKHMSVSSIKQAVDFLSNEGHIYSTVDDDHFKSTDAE
T1 sequence (P35244 whole entry, chain 3 of 3): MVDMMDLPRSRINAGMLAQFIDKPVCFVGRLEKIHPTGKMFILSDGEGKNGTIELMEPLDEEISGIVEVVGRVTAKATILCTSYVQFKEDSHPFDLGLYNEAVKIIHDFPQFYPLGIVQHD

Usually Kd stands for a measure of binding affinity in units of concentration. Consider “GTCGGATCCTCTAGACAGCATCCATGATCACTGGCACTGGTAGAATTCGGC / CAACGTCATAGACGATTACATTGCTACATGGATGCTGTCTAGAGGATCCGA [fork-2 fluorescein]”, for which the Kd with RPA heterotrimer [1] (with 500 nM BSA as control) was determined as 0.0452 µM; with RPA heterotrimer [1] (with 500 nM N-HelQ, which displaces RPA), 0.237 µM.

In the data set with RPA heterotrimer [2] (12.5 nM RPA, anisotropy: same buffer, 30 C), “GTCGGATCCTCTAGACAGCATCCATGATCACTGGCACTGGTAGAATTCGGC / CAACGTCATAGACGATTACATTGCTACATGGATGCTGTCTAGAGGATCCGA [fork-2]” had a binding signal of 100 % bound. Also, in the data set with RPA heterotrimer [2] (N-HelQ titrated (up to 500 nM), anisotropy: same buffer …), the binding signal (% of bound DNA released) is 40.
